Test results taken from article PMC3198426.

B1: Mitochondrial antiviral signaling protein (MAVS), as HAVI-Fluc-MAVS and Rluc-MAVS-Flag, Q7Z434 1-540 (natural protein)
chain: MPFAEDKTYKYICRNFSNFCNVDVVEILPYLPCLTARDQDRLRATCTLSGNRDTLWHLFNTLQRRPGWVEYFIAALRGCELVDLADEVASVYQSYQPRTSDRPPDPLEPPSLPAERPGPPTPAAAHSIPYNSCREKEPSYPMPVQETQAPESPGENSEQALQTLSPRAIPRNPDGGPLESSSDLAALSPLTSSGHQEQDTELGSTHTAGATSSLTPSRGPVSPSVSFQPLARSTPRASRLPGPTGSVVSTGTSFSSSSPGLASAGAAEGKQGAESDQAEPIICSSGAEAPANSLPSKVPTTLMPVNTVALKVPANPASVSTVPSKLPTSSKPPGAVPSNALTNPAPSKLPINSTRAGMVPSKVPTSMVLTKVSASTVPTDGSSRNEETPAAPTPAGATGGSSAWLDSSSENRGLGSELSKPGVLASQVDSPFSGCFEDLAISASTSLGMGPCHGPEENEYKSEGTFGIHVAENPSIQLLEGNPGPPADPDGGPRPQADRKFQEREVPCHRPSPGALWLQVAVTGVLVVTLLVVLYRRRLH
modifications: here or on the partner: biotin on a specific lysine residue of the Avi tag (by co-expressed BirA), on the HAVI-Fluc copy; biotin on a specific lysine residue of the Avi tag (by co-expressed BirA), on the HAVI-Fluc copy
B2: Rluc-TRAF3-Flag, Q13114 1-568 (natural protein)
chain: MESSKKMDSPGALQTNPPLKLHTDRSAGTPVFVPEQGGYKEKFVKTVEDKYKCEKCHLVLCSPKQTECGHRFCESCMAALLSSSSPKCTACQESIVKDKVFKDNCCKREILALQIYCRNESRGCAEQLMLGHLLVHLKNDCHFEELPCVRPDCKEKVLRKDLRDHVEKACKYREATCSHCKSQVPMIALQKHEDTDCPCVVVSCPHKCSVQTLLRSELSAHLSECVNAPSTCSFKRYGCVFQGTNQQIKAHEASSAVQHVNLLKEWSNSLEKKVSLLQNESVEKNKSIQSLHNQICSFEIEIERQKEMLRNNESKILHLQRVIDSQAEKLKELDKEIRPFRQNWEEADSMKSSVESLQNRVTELESVDKSAGQVARNTGLLESQLSRHDQMLSVHDIRLADMDLRFQVLETASYNGVLIWKIRDYKRRKQEAVMGKTLSLYSQPFYTGYFGYKMCARVYLNGDGMGKGTHLSLFFVIMRGEYDALLPWPFKQKVTLMLMDQGSSRRHLGDAFKPDPNSSSFKKPTGEMNIASGCPVFVAQTVLENGTYIKDDTIFIKVIVDTSDLPDP
modifications: here or on the partner: biotin on a specific lysine residue of the Avi tag (by co-expressed BirA), on the HAVI-Fluc copy
B3: Rluc-TRAF3-Flag (natural protein)
chain: B2 chain
B4: Interferon regulatory factor 3 (IRF3), as HAVI-Fluc-IRF3 and Rluc-IRF3-Flag, Q14653 1-427 (natural protein)
chain: MGTPKPRILPWLVSQLDLGQLEGVAWVNKSRTRFRIPWKHGLRQDAQQEDFGIFQAWAEATGAYVPGRDKPDLPTWKRNFRSALNRKEGLRLAEDRSKDPHDPHKIYEFVNSGVGDFSQPDTSPDTNGGGSTSDTQEDILDELLGNMVLAPLPDPGPPSLAVAPEPCPQPLRSPSLDNPTPFPNLGPSENPLKRLLVPGEEWEFEVTAFYRGRQVFQQTISCPEGLRLVGSEVGDRTLPGWPVTLPDPGMSLTDRGVMSYVRHVLSCLGGGLALWRAGQWLWAQRLGHCHTYWAVSEELLPNSGHGPDGEVPKDKEGGVFDLGPFIVDLITFTEGSGRSPRYALWFCVGESWPQDQPWTKRLVMVKVVPTCLRALVEMARVGGASSLENTVDLHISNSHPLSLTSDQYKAYLQDLVEGMDFQGPGES
modifications: here or on the partner: biotin on a specific lysine residue of the Avi tag (by co-expressed BirA), on the HAVI-Fluc copy; biotin on a specific lysine residue of the Avi tag (by co-expressed BirA), on the HAVI-Fluc copy

Key:
[1] = molecular target: Mitochondrial antiviral signaling protein (MAVS), as HAVI-Fluc-MAVS and Rluc-MAVS-Flag, Q7Z434; assay: pull-down; DLR-PD (dual luciferase reporter pull-down): both proteins co-expressed in HEK293; lysate in passive lysis buffer on Streptavidin MagneSphere Paramagnetic Particles in PBS, 30 m to 1 h, room temperature; two washes PBS with 1% Nonidet P 40, one with PBS; the biotinylated HAVI-tagged protein is held, Fluc and Rluc activity read on the beads; in some samples eYFP-MAVS or other activators (IRF3) or HCV …; details: remark: other sources report otherwise
[2] = molecular target: MAVS cleaved by HCV NS3/4A (HAVI-Fluc-MAVS and Rluc-MAVS co-expressed with NS3/4A); assay: pull-down; DLR-PD (dual luciferase reporter pull-down): both proteins co-expressed in HEK293; lysate in passive lysis buffer on Streptavidin MagneSphere Paramagnetic Particles in PBS, 30 m to 1 h, room temperature; two washes PBS with 1% Nonidet P 40, one with PBS; the biotinylated HAVI-tagged protein is held, Fluc and Rluc activity read on the beads; in some samples eYFP-MAVS or other activators (IRF3) or HCV NS3/4A (MAVS) co-expressed
[3] = molecular target: T1, Interferon regulatory factor 3 (IRF3), as HAVI-Fluc-IRF3 and Rluc-IRF3-Flag, Q14653; assay: pull-down; DLR-PD (dual luciferase reporter pull-down): both proteins co-expressed in HEK293; lysate in passive lysis buffer on Streptavidin MagneSphere Paramagnetic Particles in PBS, 30 m to 1 h, room temperature; two washes PBS with 1% Nonidet P 40, one with PBS; the biotinylated HAVI-tagged protein is held, Fluc and Rluc activity read on the beads; in some samples eYFP-MAVS or other activators (IRF3) or HCV …; details: remark: other sources report otherwise
T1 chain: B4 chain

| Binder | activity ratio of Rluc/Fluc on the beads (Rluc/Fluc activity ratio) [1] | fold of the percentage of Rluc on the beads over the three negative controls [1] [fold] | percentage of Rluc on the beads compared with the cell lysate [1] [%] | further results |
| --- | --- | --- | --- | --- |
| B1 | 0.28 | > 6 | 0.13 | – |
| B2 | 2.29 | > 26 | 1.85 | – |
| B3 | – | – | – | activity ratio of Rluc/Fluc on the beads (100 ng NS3/4A vector) (Rluc/Fluc activity ratio) [2]: 0.956 |
| B4 | – | – | – | activity ratio of Rluc/Fluc on the beads (10 ng MAVS vector, as the sentence says) (Rluc/Fluc activity ratio) [3]: 0.01; activity ratio of Rluc/Fluc on the beads (100 ng MAVS vector) (Rluc/Fluc activity ratio) [3]: 0.75; fold increase of the IRF3 dimerization ratio (overexpressed IKKε) [3]: < 1000 fold; fold of the percentage of Rluc on the beads over the negative control (10 ng of the MAVS vector) [3]: 27 fold |
